{"source": "patent US6362395", "target": "calmodulin (unlabeled, as used in the gel mobility-shift and kinase assays of Example 2) (UniProt P04353)", "data": [{"substance": "lily CCaMK truncation mutant 1-356", "values": [{"measurement": "Ca2+/calmodulin-dependent kinase activity (histone IIAS phosphorylation)", "result": "retained Ca2+/calmodulin-dependent kinase activity at a substantially reduced level"}]}]}
